We go through 67 variants from the Human Domainome abundance scans (Beltran et al. 2025).

± gives the uncertainty stated by the source.

The chains are these.
B1: Friend leukemia integration 1 transcription factor, residues 116 to 197; numbered along this chain, Q01543 (parent)
chain: NMTTNERRVIVPADPTLWTQEHVRQWLEWAIKEYSLMEIDTSFFQNMDGKELCKMNKEDFLRATTLYNTEVLLSHLSYLRES

The series covers variants of B1. As to the kind of experiment: abundance fitness (aPCA) (normalised: wild type 0, dead -1); higher = more abundant; growth selection in yeast, the domain comes from the species named. Conditions: Homo sapiens.
NMTTTERRVIVPADPTLWTQEHVRQWLEWAIKEYSLMEIDTSFFQNMDGKELCKMNKEDFLRATTLYNTEVLLSHLSYLRES: the abundance fitness was found to be 0.056 ± 0.08. With NMTTHERRVIVPADPTLWTQEHVRQWLEWAIKEYSLMEIDTSFFQNMDGKELCKMNKEDFLRATTLYNTEVLLSHLSYLRES, the abundance fitness is -0.06 ± 0.23. For NMTTSERRVIVPADPTLWTQEHVRQWLEWAIKEYSLMEIDTSFFQNMDGKELCKMNKEDFLRATTLYNTEVLLSHLSYLRES the value was -0.152 ± 0.1. Turning to NMTTFERRVIVPADPTLWTQEHVRQWLEWAIKEYSLMEIDTSFFQNMDGKELCKMNKEDFLRATTLYNTEVLLSHLSYLRES, the abundance fitness is -0.089 ± 0.21. For NMTTPERRVIVPADPTLWTQEHVRQWLEWAIKEYSLMEIDTSFFQNMDGKELCKMNKEDFLRATTLYNTEVLLSHLSYLRES the value was -0.017 ± 0.078.

In the case of NMTTEERRVIVPADPTLWTQEHVRQWLEWAIKEYSLMEIDTSFFQNMDGKELCKMNKEDFLRATTLYNTEVLLSHLSYLRES, the abundance fitness was -0.039 ± 0.099. The result for NMTTYERRVIVPADPTLWTQEHVRQWLEWAIKEYSLMEIDTSFFQNMDGKELCKMNKEDFLRATTLYNTEVLLSHLSYLRES reads -0.121 ± 0.12. For the variant NMTTDERRVIVPADPTLWTQEHVRQWLEWAIKEYSLMEIDTSFFQNMDGKELCKMNKEDFLRATTLYNTEVLLSHLSYLRES, the abundance fitness is -0.011 ± 0.13. The result for NMTTMERRVIVPADPTLWTQEHVRQWLEWAIKEYSLMEIDTSFFQNMDGKELCKMNKEDFLRATTLYNTEVLLSHLSYLRES reads -0.127 ± 0.12; that for NMTTQERRVIVPADPTLWTQEHVRQWLEWAIKEYSLMEIDTSFFQNMDGKELCKMNKEDFLRATTLYNTEVLLSHLSYLRES, -0.228 ± 0.12; that for NMTTCERRVIVPADPTLWTQEHVRQWLEWAIKEYSLMEIDTSFFQNMDGKELCKMNKEDFLRATTLYNTEVLLSHLSYLRES, 0.019 ± 0.2. As to NMTTRERRVIVPADPTLWTQEHVRQWLEWAIKEYSLMEIDTSFFQNMDGKELCKMNKEDFLRATTLYNTEVLLSHLSYLRES, the abundance fitness was -0.042 ± 0.054. The result for NMTTGERRVIVPADPTLWTQEHVRQWLEWAIKEYSLMEIDTSFFQNMDGKELCKMNKEDFLRATTLYNTEVLLSHLSYLRES reads -0.042 ± 0.066.

Consider NMTTKERRVIVPADPTLWTQEHVRQWLEWAIKEYSLMEIDTSFFQNMDGKELCKMNKEDFLRATTLYNTEVLLSHLSYLRES, for which the abundance fitness was 0.004 ± 0.064. For the variant NMTFNERRVIVPADPTLWTQEHVRQWLEWAIKEYSLMEIDTSFFQNMDGKELCKMNKEDFLRATTLYNTEVLLSHLSYLRES, the abundance fitness was -0.048 ± 0.12. For NMTPNERRVIVPADPTLWTQEHVRQWLEWAIKEYSLMEIDTSFFQNMDGKELCKMNKEDFLRATTLYNTEVLLSHLSYLRES the value was -0.037 ± 0.095; for NMTKNERRVIVPADPTLWTQEHVRQWLEWAIKEYSLMEIDTSFFQNMDGKELCKMNKEDFLRATTLYNTEVLLSHLSYLRES, -0.005 ± 0.1; for NMTDNERRVIVPADPTLWTQEHVRQWLEWAIKEYSLMEIDTSFFQNMDGKELCKMNKEDFLRATTLYNTEVLLSHLSYLRES, 0.045 ± 0.14. With NMTQNERRVIVPADPTLWTQEHVRQWLEWAIKEYSLMEIDTSFFQNMDGKELCKMNKEDFLRATTLYNTEVLLSHLSYLRES, the abundance fitness is -0.085 ± 0.092. In the case of NMTMNERRVIVPADPTLWTQEHVRQWLEWAIKEYSLMEIDTSFFQNMDGKELCKMNKEDFLRATTLYNTEVLLSHLSYLRES, the abundance fitness is -0.075 ± 0.18. For NMTVNERRVIVPADPTLWTQEHVRQWLEWAIKEYSLMEIDTSFFQNMDGKELCKMNKEDFLRATTLYNTEVLLSHLSYLRES the value was 0.003 ± 0.09; for NMTHNERRVIVPADPTLWTQEHVRQWLEWAIKEYSLMEIDTSFFQNMDGKELCKMNKEDFLRATTLYNTEVLLSHLSYLRES, -0.115 ± 0.1; for NMTWNERRVIVPADPTLWTQEHVRQWLEWAIKEYSLMEIDTSFFQNMDGKELCKMNKEDFLRATTLYNTEVLLSHLSYLRES, -0.03 ± 0.17. As to NMTINERRVIVPADPTLWTQEHVRQWLEWAIKEYSLMEIDTSFFQNMDGKELCKMNKEDFLRATTLYNTEVLLSHLSYLRES, the abundance fitness is 0.017 ± 0.15. The result for NMTGNERRVIVPADPTLWTQEHVRQWLEWAIKEYSLMEIDTSFFQNMDGKELCKMNKEDFLRATTLYNTEVLLSHLSYLRES reads -0.065 ± 0.11; that for NMTNNERRVIVPADPTLWTQEHVRQWLEWAIKEYSLMEIDTSFFQNMDGKELCKMNKEDFLRATTLYNTEVLLSHLSYLRES, 0.076 ± 0.23. Consider NMTANERRVIVPADPTLWTQEHVRQWLEWAIKEYSLMEIDTSFFQNMDGKELCKMNKEDFLRATTLYNTEVLLSHLSYLRES, for which the abundance fitness came to 0.069 ± 0.089.

Consider NTTTNERRVIVPADPTLWTQEHVRQWLEWAIKEYSLMEIDTSFFQNMDGKELCKMNKEDFLRATTLYNTEVLLSHLSYLRES, for which the abundance fitness is -0.231 ± 0.13. NPTTNERRVIVPADPTLWTQEHVRQWLEWAIKEYSLMEIDTSFFQNMDGKELCKMNKEDFLRATTLYNTEVLLSHLSYLRES: the abundance fitness is -0.099 ± 0.13. The result for NVTTNERRVIVPADPTLWTQEHVRQWLEWAIKEYSLMEIDTSFFQNMDGKELCKMNKEDFLRATTLYNTEVLLSHLSYLRES reads -0.584 ± 0.11. For NRTTNERRVIVPADPTLWTQEHVRQWLEWAIKEYSLMEIDTSFFQNMDGKELCKMNKEDFLRATTLYNTEVLLSHLSYLRES the value was 0.057 ± 0.089; for NQTTNERRVIVPADPTLWTQEHVRQWLEWAIKEYSLMEIDTSFFQNMDGKELCKMNKEDFLRATTLYNTEVLLSHLSYLRES, 0.011 ± 0.16; for NWTTNERRVIVPADPTLWTQEHVRQWLEWAIKEYSLMEIDTSFFQNMDGKELCKMNKEDFLRATTLYNTEVLLSHLSYLRES, -0.057 ± 0.14. The result for NMKTNERRVIVPADPTLWTQEHVRQWLEWAIKEYSLMEIDTSFFQNMDGKELCKMNKEDFLRATTLYNTEVLLSHLSYLRES reads 0.185 ± 0.18; that for NMETNERRVIVPADPTLWTQEHVRQWLEWAIKEYSLMEIDTSFFQNMDGKELCKMNKEDFLRATTLYNTEVLLSHLSYLRES, -0.392 ± 0.3. With NMFTNERRVIVPADPTLWTQEHVRQWLEWAIKEYSLMEIDTSFFQNMDGKELCKMNKEDFLRATTLYNTEVLLSHLSYLRES, the abundance fitness came out at 0.111 ± 0.41. NMQTNERRVIVPADPTLWTQEHVRQWLEWAIKEYSLMEIDTSFFQNMDGKELCKMNKEDFLRATTLYNTEVLLSHLSYLRES: the abundance fitness was -0.136 ± 0.12. Regarding NMCTNERRVIVPADPTLWTQEHVRQWLEWAIKEYSLMEIDTSFFQNMDGKELCKMNKEDFLRATTLYNTEVLLSHLSYLRES, the abundance fitness came to 0.009 ± 0.2. NMITNERRVIVPADPTLWTQEHVRQWLEWAIKEYSLMEIDTSFFQNMDGKELCKMNKEDFLRATTLYNTEVLLSHLSYLRES: the abundance fitness was -0.078 ± 0.21. As for NMDTNERRVIVPADPTLWTQEHVRQWLEWAIKEYSLMEIDTSFFQNMDGKELCKMNKEDFLRATTLYNTEVLLSHLSYLRES, the abundance fitness was -0.537 ± 0.5. In the case of NMSTNERRVIVPADPTLWTQEHVRQWLEWAIKEYSLMEIDTSFFQNMDGKELCKMNKEDFLRATTLYNTEVLLSHLSYLRES, the abundance fitness turned out to be 0.06 ± 0.14. Take NMATNERRVIVPADPTLWTQEHVRQWLEWAIKEYSLMEIDTSFFQNMDGKELCKMNKEDFLRATTLYNTEVLLSHLSYLRES: the abundance fitness was 0.089 ± 0.16. The result for NMVTNERRVIVPADPTLWTQEHVRQWLEWAIKEYSLMEIDTSFFQNMDGKELCKMNKEDFLRATTLYNTEVLLSHLSYLRES reads -0.201 ± 0.13; that for NMGTNERRVIVPADPTLWTQEHVRQWLEWAIKEYSLMEIDTSFFQNMDGKELCKMNKEDFLRATTLYNTEVLLSHLSYLRES, -0.098 ± 0.11. For NMHTNERRVIVPADPTLWTQEHVRQWLEWAIKEYSLMEIDTSFFQNMDGKELCKMNKEDFLRATTLYNTEVLLSHLSYLRES the value was -0.359 ± 0.15. As for NMYTNERRVIVPADPTLWTQEHVRQWLEWAIKEYSLMEIDTSFFQNMDGKELCKMNKEDFLRATTLYNTEVLLSHLSYLRES, the abundance fitness was -0.201 ± 0.44. The result for NMNTNERRVIVPADPTLWTQEHVRQWLEWAIKEYSLMEIDTSFFQNMDGKELCKMNKEDFLRATTLYNTEVLLSHLSYLRES reads -0.076 ± 0.44; that for NMMTNERRVIVPADPTLWTQEHVRQWLEWAIKEYSLMEIDTSFFQNMDGKELCKMNKEDFLRATTLYNTEVLLSHLSYLRES, 0.037 ± 0.11.

In the case of NMLTNERRVIVPADPTLWTQEHVRQWLEWAIKEYSLMEIDTSFFQNMDGKELCKMNKEDFLRATTLYNTEVLLSHLSYLRES, the abundance fitness was -0.076 ± 0.076. NMWTNERRVIVPADPTLWTQEHVRQWLEWAIKEYSLMEIDTSFFQNMDGKELCKMNKEDFLRATTLYNTEVLLSHLSYLRES: the abundance fitness was -0.022 ± 0.096. For NMRTNERRVIVPADPTLWTQEHVRQWLEWAIKEYSLMEIDTSFFQNMDGKELCKMNKEDFLRATTLYNTEVLLSHLSYLRES the value was -0.169 ± 0.094; for NMPTNERRVIVPADPTLWTQEHVRQWLEWAIKEYSLMEIDTSFFQNMDGKELCKMNKEDFLRATTLYNTEVLLSHLSYLRES, -0.246 ± 0.089. As for NMTTNQRRVIVPADPTLWTQEHVRQWLEWAIKEYSLMEIDTSFFQNMDGKELCKMNKEDFLRATTLYNTEVLLSHLSYLRES, the abundance fitness is -0.174 ± 0.15.

For the variant NMTTNLRRVIVPADPTLWTQEHVRQWLEWAIKEYSLMEIDTSFFQNMDGKELCKMNKEDFLRATTLYNTEVLLSHLSYLRES, the abundance fitness stood at 0.001 ± 0.068. The result for NMTTNPRRVIVPADPTLWTQEHVRQWLEWAIKEYSLMEIDTSFFQNMDGKELCKMNKEDFLRATTLYNTEVLLSHLSYLRES reads -0.126 ± 0.091. The result for NMTTNCRRVIVPADPTLWTQEHVRQWLEWAIKEYSLMEIDTSFFQNMDGKELCKMNKEDFLRATTLYNTEVLLSHLSYLRES reads -0.23 ± 0.39; that for NMTTNGRRVIVPADPTLWTQEHVRQWLEWAIKEYSLMEIDTSFFQNMDGKELCKMNKEDFLRATTLYNTEVLLSHLSYLRES, -0.179 ± 0.09.

In the case of NMTTNIRRVIVPADPTLWTQEHVRQWLEWAIKEYSLMEIDTSFFQNMDGKELCKMNKEDFLRATTLYNTEVLLSHLSYLRES, the abundance fitness is -0.087 ± 0.15. The result for NMTTNVRRVIVPADPTLWTQEHVRQWLEWAIKEYSLMEIDTSFFQNMDGKELCKMNKEDFLRATTLYNTEVLLSHLSYLRES reads -0.092 ± 0.082; that for NMTTNTRRVIVPADPTLWTQEHVRQWLEWAIKEYSLMEIDTSFFQNMDGKELCKMNKEDFLRATTLYNTEVLLSHLSYLRES, -0.013 ± 0.13; that for NMTTNARRVIVPADPTLWTQEHVRQWLEWAIKEYSLMEIDTSFFQNMDGKELCKMNKEDFLRATTLYNTEVLLSHLSYLRES, -0.185 ± 0.095. For NMTTNHRRVIVPADPTLWTQEHVRQWLEWAIKEYSLMEIDTSFFQNMDGKELCKMNKEDFLRATTLYNTEVLLSHLSYLRES the value was -0.377 ± 0.49; for NMTTNSRRVIVPADPTLWTQEHVRQWLEWAIKEYSLMEIDTSFFQNMDGKELCKMNKEDFLRATTLYNTEVLLSHLSYLRES, -0.028 ± 0.084. Turning to NMTTNMRRVIVPADPTLWTQEHVRQWLEWAIKEYSLMEIDTSFFQNMDGKELCKMNKEDFLRATTLYNTEVLLSHLSYLRES, the abundance fitness is -0.163 ± 0.15. The result for NMTTNYRRVIVPADPTLWTQEHVRQWLEWAIKEYSLMEIDTSFFQNMDGKELCKMNKEDFLRATTLYNTEVLLSHLSYLRES reads -0.308 ± 0.21; that for NMTTNFRRVIVPADPTLWTQEHVRQWLEWAIKEYSLMEIDTSFFQNMDGKELCKMNKEDFLRATTLYNTEVLLSHLSYLRES, -0.435 ± 0.21.

In the case of NMTTNNRRVIVPADPTLWTQEHVRQWLEWAIKEYSLMEIDTSFFQNMDGKELCKMNKEDFLRATTLYNTEVLLSHLSYLRES, the abundance fitness was -0.022 ± 0.17.
